Experiments:
[1] = target: putative IBC-1 receptor on G361 melanoma cells, moderately high affinity binding site (human); assay: Scatchard analysis of AP-IBC-1 binding to G361 melanoma cells, bound AP activity; moderately high affinity slope
[2] = target: putative IBC-1 receptor on G361 melanoma cells, lower affinity binding site (human); assay: Scatchard analysis of AP-IBC-1 binding to G361 melanoma cells, bound AP activity; lower affinity slope
[3] = target: putative IBC-1 receptor on G361 melanoma cells, moderately high affinity binding site (human); assay: Scatchard analysis of AP-IBC-1 binding to G361 melanoma cells; moderately high affinity slope
[4] = target: putative IBC-1 receptor on G361 melanoma cells, lower affinity binding site (human); assay: Scatchard analysis of AP-IBC-1 binding to G361 melanoma cells; lower affinity slope

- Kd [1]: 37.5 nM
- Kd [2]: 360 nM
- binding sites/cell (binding sites/cell) [3]: 17000
- binding sites/cell (binding sites/cell) [4]: 350000
Substance: alkaline phosphatase-IBC-1 fusion protein (from UniProt P81605 20-110) (ligand)

From patent EP1438388B1
